Two molecules from paper PMC2929022 (Molecular cell, 2010) can be followed below.

The experiment addresses T1, GST-YcgR-HA fusion (wild-type YcgR of E. coli) (E. coli, UniProt P76010 1-244).
T1 sequence (looked up): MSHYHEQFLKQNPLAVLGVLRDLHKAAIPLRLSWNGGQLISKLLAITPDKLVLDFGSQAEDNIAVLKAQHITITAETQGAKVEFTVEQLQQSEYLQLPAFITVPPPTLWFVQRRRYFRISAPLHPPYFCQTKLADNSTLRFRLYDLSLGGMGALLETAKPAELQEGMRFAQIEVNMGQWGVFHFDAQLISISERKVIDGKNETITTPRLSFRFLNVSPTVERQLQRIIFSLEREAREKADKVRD
Briefly: pull-down.

B1: FliG (E. coli) (natural protein, UniProt P0ABZ1 1-331, looked up)
chain: MSNLTGTDKSVILLMTIGEDRAAEVFKHLSQREVQTLSAAMANVTQISNKQLTDVLAEFEQEAEQFAALNINANDYLRSVLVKALGEERAASLLEDILETRDTASGIETLNFMEPQSAADLIRDEHPQIIATILVHLKRAQAADILALFDERLRHDVMLRIATFGGVQPAALAELTEVLNGLLDGQNLKRSKMGGVRTAAEIINLMKTQQEEAVITAVREFDGELAQKIIDEMFLFENLVDVDDRSIQRLLQEVDSESLLIALKGAEQPLREKFLRNMSQRAADILRDDLANRGPVRLSQVENEQKAILLIVRRLAETGEMVIGSGEDTYV
In the case of B1, the “fold increase of binding with c-di-GMP at 5 μM or higher over no added c-di-GMP” value is approximately 2 fold.

B2: FliM (E. coli) (natural protein, UniProt P06974 1-334, looked up)
chain: MGDSILSQAEIDALLNGDSEVKDEPTASVSGESDIRPYDPNTQRRVVRERLQALEIINERFARHFRMGLFNLLRRSPDITVGAIRIQPYHEFARNLPVPTNLNLIHLKPLRGTGLVVFSPSLVFIAVDNLFGGDGRFPTKVEGREFTHTEQRVINRMLKLALEGYSDAWKAINPLEVEYVRSEMQVKFTNITTSPNDIVVNTPFHVEIGNLTGEFNICLPFSMIEPLRELLVNPPLENSRNEDQNWRDNLVRQVQHSQLELVANFADISLRLSQILKLNPGDVLPIEKPDRIIAHVDGVPVLTSQYGTLNGQYALRIEHLINPILNSLNEEQPK
Turning to B2, the “fold increase of binding with c-di-GMP at 5 μM or higher over no added c-di-GMP” value is approximately 2 fold.
